The text below walks through data of paper PMC11093611.

The target in this series is T1, rCf48 (recombinant Flag-Cf48 micropeptide) (mouse, UniProt Q3UR78 29-90).
T1 sequence: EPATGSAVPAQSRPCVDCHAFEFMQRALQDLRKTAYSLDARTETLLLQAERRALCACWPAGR
The experiment in a line: EMSA; Thermo LightShift Chemiluminescent RNA EMSA kit (20158); buffer, salt, pH and temperature not given in the material. The conditions noted are these: protein: recombinant; tags: FLAG (Fc tag removed with enterokinase); label: biotin.

B1: Serpine1 mRNA 3'-most 134 nt WT probe (ssRNA)
RNA: CCAAAUGUGGGGUCACAUGGUCUUGAAUUUUGUGGGGUACAUAUGCCUUUGUUUGUUUGUUUUCACUUUUGAUAUAUAAACAGGUAAAUGUGUUUUUAAAAAAUAAUAAAAAUAGAGAAUAUGCAGACAAAAAAA
In the case of B1, the binding result is reported as “binds”.

B2: Acta2 mRNA 3'-most 132 nt WT probe (ssRNA)
RNA: GGUGACCAGAUAGGUAAAAAACAAUUUUACGUGUAUUUAAAAUUUGGCAAGUAAUAUGGUUUUAUUAAAAUCACAUCUUUUGUAUUAAAGCAUACACACGUGCAUGGAUAUGCAUGCGUGACUUUUAACUUG
Consider B2, for which the binding result is listed as “binds”.
